Data on two proteins can be found in patent US20090110693A1 (IMAXIO, published 2009).

This data set deals with the molecule itself. The data set is described as follows: self-association, SDS-PAGE with and without reducing agent.

B1: AVD259 protein (chicken C4 bp oligomerisation domain with N-terminal leader) (other)
chain: MALKKHHENEISHHGSKKQGDADVCGEVAYIQSVVSDCHVPTEDVKTLLEIRKLFLEIQKLKVELQGLSKEFLEHILH
notes: Expressed in E. coli; On a non-reducing gel, monomer to heptamer bands are seen because disulphide formation is incomplete; the heptamer is the highest species; also called recombinant AVD259 protein
On to B1, for which the binding result is “binds”.

B2: AVD262 fusion protein (Plasmodium yoelii MSP1.19-chicken C4 bp oligomerisation domain) (other)
chain: MRSHIASIALNNLNKSGLVGEGESKKILAKMLNMDGMDLLGVDPKHVCVDTRDIPKNAGCFRDDNGTEEWRCLLGYKKGEGNTCVENNNPTCDINNGGCDPTASCQNAESTENSKKIICTCKEPTPNAYYEGVFCSSSGSKKQGDADVCGEVAYIQSVVSDCHVPTEDVKTLLEIRKLFLEIQKLKVELQGLSKEFLEHILH
notes: Runs as a disulphide-linked heptamer of about 140 kDa without reducing agent
For the protein B2, the binding result is given as “binds”.
